Results taken from article PMC9352680, “A comprehensive thermodynamic model for RNA binding by the Saccharomyces cerevisiae Pumilio protein PUF4”.

Target: T1, PUF4 RNA-binding domain (Saccharomyces cerevisiae, UniProt P25339 537-888)
T1 sequence: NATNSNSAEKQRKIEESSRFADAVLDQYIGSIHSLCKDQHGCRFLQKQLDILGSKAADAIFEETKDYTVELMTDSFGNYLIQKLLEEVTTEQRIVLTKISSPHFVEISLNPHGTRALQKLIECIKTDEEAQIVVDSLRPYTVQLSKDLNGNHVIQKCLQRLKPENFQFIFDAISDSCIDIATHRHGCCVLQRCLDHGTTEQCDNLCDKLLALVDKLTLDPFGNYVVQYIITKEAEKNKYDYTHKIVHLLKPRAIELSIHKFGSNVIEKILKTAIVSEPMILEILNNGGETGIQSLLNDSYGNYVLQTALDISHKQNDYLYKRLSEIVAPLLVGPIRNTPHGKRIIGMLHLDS
Assay: Mg; RNA-MaP; 20 mM Na-HEPES pH 7.4, 30 mM KOAc, 0.75 mM MgCl2, 0.1% Tween-20, 5% glycerol, 0.1 mg/mL BSA, 2 mM DTT; 25 C; 0.0125-409.6 nM protein
Settings: tags: N-His6-TEV cleaved; C-SNAP kept, Cy3B-labelled; label: tethered on chip by stalled RNA polymerase

Binder	Kd
UCUCUUUGUAAUUUAUCUCUU (ssRNA) [Ic_S1_P4E.1_K4.1_C4.1_H4.1_A4.1_[T5A]_[A6T]_F4.1_T4.1]	3.77 nM
UCUCUUCAACACUAUUAAUUCUCUU (ssRNA) [Id_ii_S1_P4E.4_K4.3_C4.2_[T-1A]_H4.3_A4.1_F4.1_T4.2_[G10A]]	> 2300 nM
UCUCUUCAACACUAUUAGUUCUCUU (ssRNA) [Id_ii_S1_P4E.4_K4.3_C4.2_[T-1A]_H4.3_A4.1_F4.1_T4.2]	> 2300 nM
UCUCUUCUACACUAUUAUCUCUCUU (ssRNA) [Id_ii_S1_P4E.4_K4.3_C4.2_H4.3_A4.1_F4.1_T4.2_[G10T]_[T11C]]	1700 nM
UCUCUUCUACACUAUUAUAUCUCUU (ssRNA) [Id_ii_S1_P4E.4_K4.3_C4.2_H4.3_A4.1_F4.1_T4.2_[G10T]_[T11A]]	965 nM
UCUCUUCUACACUAUUAUUUCUCUU (ssRNA) [Id_ii_S1_P4E.4_K4.3_C4.2_H4.3_A4.1_F4.1_T4.2_[G10T]]	> 2300 nM
UCUCUUGCUGUAUUAUUAACUCUCUU (ssRNA) [Id_ii_S1_P5E.2_K5.1_C5.2_[C-2G]_[T-1C]_H5.1_A5.1_F5.1_T5.2_[T11A]_[A12C]]	15.2 nM
UCUCUUGCUGUAUUAUUAAUUCUCUU (ssRNA) [Id_ii_S1_P5E.2_K5.1_C5.2_[C-2G]_[T-1C]_H5.1_A5.1_F5.1_T5.2_[T11A]_[A12T]]	21.6 nM
UCUCUUGCUGUAUUAUUAUCUCUCUU (ssRNA) [Id_ii_S1_P5E.2_K5.1_C5.2_[C-2G]_[T-1C]_H5.1_A5.1_F5.1_T5.2_[A12C]]	11.7 nM
UCUCUUGCUGUAUUAUUAUUUCUCUU (ssRNA) [Id_ii_S1_P5E.2_K5.1_C5.2_[C-2G]_[T-1C]_H5.1_A5.1_F5.1_T5.2_[A12T]]	10.5 nM
UCUCUUGUUGUAUUAUUAAUUCUCUU (ssRNA) [Id_ii_S1_P5E.2_K5.1_C5.2_[C-2G]_H5.1_A5.1_F5.1_T5.2_[T11A]_[A12T]]	9.79 nM
UCUCUUUGUAUUAAUAUCUCUU (ssRNA) [Ia_S1_P5E.1_K5.1_C5.1_H5.1_A5.1_F5.1_[T8A]_T5.1]	9.4 nM
UCUCUUUGUACACUAUCUCUU (ssRNA) [Ib_S1_P4E.1_K4.1_C4.1_H4.1_A4.1_[T5C]_[T7C]_F4.1_T4.1]	0.824 nM
UCUCUUGUUGUAUUAUUAAAUCUCUU (ssRNA) [Id_ii_S1_P5E.2_K5.1_C5.2_[C-2G]_H5.1_A5.1_F5.1_T5.2_[T11A]]	11.7 nM
UCUCUUGUUGUAUUAUUAUCUCUCUU (ssRNA) [Id_ii_S1_P5E.2_K5.1_C5.2_[C-2G]_H5.1_A5.1_F5.1_T5.2_[A12C]]	6.74 nM
UCUCUUGUUGUAUUAUUAUUUCUCUU (ssRNA) [Id_ii_S1_P5E.2_K5.1_C5.2_[C-2G]_H5.1_A5.1_F5.1_T5.2_[A12T]]	6.28 nM
UCUCUUUGUGUAUUAUUAGUUCUCUU (ssRNA) [Id_ii_S1_P5E.2_K5.1_C5.2_[C-2T]_[T-1G]_H5.1_A5.1_F5.1_T5.2_[T11G]_[A12T]]	2.43 nM
UCUCUUUGUGUAUUAUUAACUCUCUU (ssRNA) [Id_ii_S1_P5E.2_K5.1_C5.2_[C-2T]_[T-1G]_H5.1_A5.1_F5.1_T5.2_[T11A]_[A12C]]	3.86 nM
UCUCUUUGUGUAUUAUUAAUUCUCUU (ssRNA) [Id_ii_S1_P5E.2_K5.1_C5.2_[C-2T]_[T-1G]_H5.1_A5.1_F5.1_T5.2_[T11A]_[A12T]]	4.68 nM
UCUCUUUGUGUAUUAUUAUCUCUCUU (ssRNA) [Id_ii_S1_P5E.2_K5.1_C5.2_[C-2T]_[T-1G]_H5.1_A5.1_F5.1_T5.2_[A12C]]	3.72 nM
UCUCUUUGUGUAUUAUUAUUUCUCUU (ssRNA) [Id_ii_S1_P5E.2_K5.1_C5.2_[C-2T]_[T-1G]_H5.1_A5.1_F5.1_T5.2_[A12T]]	3.95 nM

Binder	Kd
UCUCUUUCUGUAUUAUUAAGUCUCUU (ssRNA) [Id_ii_S1_P5E.2_K5.1_C5.2_[C-2T]_[T-1C]_H5.1_A5.1_F5.1_T5.2_[T11A]_[A12G]]	11.5 nM
UCUCUUUCUGUAUUAUUAACUCUCUU (ssRNA) [Id_ii_S1_P5E.2_K5.1_C5.2_[C-2T]_[T-1C]_H5.1_A5.1_F5.1_T5.2_[T11A]_[A12C]]	5.78 nM
UCUCUUUGUACAAUAUCUCUU (ssRNA) [Ib_S1_P4E.1_K4.1_C4.1_H4.1_A4.1_[T5C]_[T7A]_F4.1_T4.1]	1.29 nM
UCUCUUUCUGUAUUAUUAAAUCUCUU (ssRNA) [Id_ii_S1_P5E.2_K5.1_C5.2_[C-2T]_[T-1C]_H5.1_A5.1_F5.1_T5.2_[T11A]]	8.35 nM
UCUCUUUCUGUAUUAUUAUGUCUCUU (ssRNA) [Id_ii_S1_P5E.2_K5.1_C5.2_[C-2T]_[T-1C]_H5.1_A5.1_F5.1_T5.2_[A12G]]	5.28 nM
UCUCUUUCUGUAUUAUUAUCUCUCUU (ssRNA) [Id_ii_S1_P5E.2_K5.1_C5.2_[C-2T]_[T-1C]_H5.1_A5.1_F5.1_T5.2_[A12C]]	4.88 nM
UCUCUUUCUGUAUUAUUAUUUCUCUU (ssRNA) [Id_ii_S1_P5E.2_K5.1_C5.2_[C-2T]_[T-1C]_H5.1_A5.1_F5.1_T5.2_[A12T]]	5.27 nM
UCUCUUUAUGUAUUAUUAGCUCUCUU (ssRNA) [Id_ii_S1_P5E.2_K5.1_C5.2_[C-2T]_[T-1A]_H5.1_A5.1_F5.1_T5.2_[T11G]_[A12C]]	4.56 nM
UCUCUUUAUGUAUUAUUAGUUCUCUU (ssRNA) [Id_ii_S1_P5E.2_K5.1_C5.2_[C-2T]_[T-1A]_H5.1_A5.1_F5.1_T5.2_[T11G]_[A12T]]	4.38 nM
UCUCUUUAUGUAUUAUUAACUCUCUU (ssRNA) [Id_ii_S1_P5E.2_K5.1_C5.2_[C-2T]_[T-1A]_H5.1_A5.1_F5.1_T5.2_[T11A]_[A12C]]	13.9 nM
UCUCUUUAUGUAUUAUUAAUUCUCUU (ssRNA) [Id_ii_S1_P5E.2_K5.1_C5.2_[C-2T]_[T-1A]_H5.1_A5.1_F5.1_T5.2_[T11A]_[A12T]]	10.6 nM
UCUCUUUAUGUAUUAUUAAAUCUCUU (ssRNA) [Id_ii_S1_P5E.2_K5.1_C5.2_[C-2T]_[T-1A]_H5.1_A5.1_F5.1_T5.2_[T11A]]	16.8 nM
UCUCUUUAUGUAUUAUUAUCUCUCUU (ssRNA) [Id_ii_S1_P5E.2_K5.1_C5.2_[C-2T]_[T-1A]_H5.1_A5.1_F5.1_T5.2_[A12C]]	8.06 nM
UCUCUUUGUAAAGUAUCUCUU (ssRNA) [Ic_S1_P4E.1_K4.1_C4.1_H4.1_A4.1_[T5A]_[T7G]_F4.1_T4.1]	7.21 nM
UCUCUUUAUGUAUUAUUAUUUCUCUU (ssRNA) [Id_ii_S1_P5E.2_K5.1_C5.2_[C-2T]_[T-1A]_H5.1_A5.1_F5.1_T5.2_[A12T]]	7.85 nM
UCUCUUUUUGUAUUAUUAGCUCUCUU (ssRNA) [Id_ii_S1_P5E.2_K5.1_C5.2_[C-2T]_H5.1_A5.1_F5.1_T5.2_[T11G]_[A12C]]	4.26 nM
UCUCUUUUUGUAUUAUUAGUUCUCUU (ssRNA) [Id_ii_S1_P5E.2_K5.1_C5.2_[C-2T]_H5.1_A5.1_F5.1_T5.2_[T11G]_[A12T]]	3.49 nM
UCUCUUUUUGUAUUAUUAAGUCUCUU (ssRNA) [Id_ii_S1_P5E.2_K5.1_C5.2_[C-2T]_H5.1_A5.1_F5.1_T5.2_[T11A]_[A12G]]	17 nM
UCUCUUUUUGUAUUAUUAACUCUCUU (ssRNA) [Id_ii_S1_P5E.2_K5.1_C5.2_[C-2T]_H5.1_A5.1_F5.1_T5.2_[T11A]_[A12C]]	8.08 nM
UCUCUUUUUGUAUUAUUAAUUCUCUU (ssRNA) [Id_ii_S1_P5E.2_K5.1_C5.2_[C-2T]_H5.1_A5.1_F5.1_T5.2_[T11A]_[A12T]]	8.7 nM
UCUCUUUUUGUAUUAUUAAAUCUCUU (ssRNA) [Id_ii_S1_P5E.2_K5.1_C5.2_[C-2T]_H5.1_A5.1_F5.1_T5.2_[T11A]]	16.4 nM

Binder	Kd
UCUCUUUUUGUAUUAUUAUGUCUCUU (ssRNA) [Id_ii_S1_P5E.2_K5.1_C5.2_[C-2T]_H5.1_A5.1_F5.1_T5.2_[A12G]]	7.22 nM
UCUCUUUUUGUAUUAUUAUCUCUCUU (ssRNA) [Id_ii_S1_P5E.2_K5.1_C5.2_[C-2T]_H5.1_A5.1_F5.1_T5.2_[A12C]]	5.34 nM
UCUCUUUUUGUAUUAUUAUUUCUCUU (ssRNA) [Id_ii_S1_P5E.2_K5.1_C5.2_[C-2T]_H5.1_A5.1_F5.1_T5.2_[A12T]]	10.2 nM
UCUCUUUGUAAACUAUCUCUU (ssRNA) [Ic_S1_P4E.1_K4.1_C4.1_H4.1_A4.1_[T5A]_[T7C]_F4.1_T4.1]	2.01 nM
UCUCUUACUGUAUUAUUAAUUCUCUU (ssRNA) [Id_ii_S1_P5E.2_K5.1_C5.2_[C-2A]_[T-1C]_H5.1_A5.1_F5.1_T5.2_[T11A]_[A12T]]	12.5 nM
UCUCUUACUGUAUUAUUAAAUCUCUU (ssRNA) [Id_ii_S1_P5E.2_K5.1_C5.2_[C-2A]_[T-1C]_H5.1_A5.1_F5.1_T5.2_[T11A]]	23.8 nM
UCUCUUACUGUAUUAUUAUGUCUCUU (ssRNA) [Id_ii_S1_P5E.2_K5.1_C5.2_[C-2A]_[T-1C]_H5.1_A5.1_F5.1_T5.2_[A12G]]	8.64 nM
UCUCUUACUGUAUUAUUAUCUCUCUU (ssRNA) [Id_ii_S1_P5E.2_K5.1_C5.2_[C-2A]_[T-1C]_H5.1_A5.1_F5.1_T5.2_[A12C]]	9.38 nM
UCUCUUACUGUAUUAUUAUUUCUCUU (ssRNA) [Id_ii_S1_P5E.2_K5.1_C5.2_[C-2A]_[T-1C]_H5.1_A5.1_F5.1_T5.2_[A12T]]	8.56 nM
UCUCUUAUUGUAUUAUUAGCUCUCUU (ssRNA) [Id_ii_S1_P5E.2_K5.1_C5.2_[C-2A]_H5.1_A5.1_F5.1_T5.2_[T11G]_[A12C]]	4.53 nM
UCUCUUAUUGUAUUAUUAACUCUCUU (ssRNA) [Id_ii_S1_P5E.2_K5.1_C5.2_[C-2A]_H5.1_A5.1_F5.1_T5.2_[T11A]_[A12C]]	11.1 nM
UCUCUUAUUGUAUUAUUAAAUCUCUU (ssRNA) [Id_ii_S1_P5E.2_K5.1_C5.2_[C-2A]_H5.1_A5.1_F5.1_T5.2_[T11A]]	13.4 nM
UCUCUUAUUGUAUUAUUAUGUCUCUU (ssRNA) [Id_ii_S1_P5E.2_K5.1_C5.2_[C-2A]_H5.1_A5.1_F5.1_T5.2_[A12G]]	10.1 nM
UCUCUUAUUGUAUUAUUAUCUCUCUU (ssRNA) [Id_ii_S1_P5E.2_K5.1_C5.2_[C-2A]_H5.1_A5.1_F5.1_T5.2_[A12C]]	6.61 nM
UCUCUUUGUAAAAUAUCUCUU (ssRNA) [Ic_S1_P4E.1_K4.1_C4.1_H4.1_A4.1_[T5A]_[T7A]_F4.1_T4.1]	3.38 nM
UCUCUUAUUGUAUUAUUAUUUCUCUU (ssRNA) [Id_ii_S1_P5E.2_K5.1_C5.2_[C-2A]_H5.1_A5.1_F5.1_T5.2_[A12T]]	5.93 nM
UCUCUUCGUGUAUUAUUAGUUCUCUU (ssRNA) [Id_ii_S1_P5E.2_K5.1_C5.2_[T-1G]_H5.1_A5.1_F5.1_T5.2_[T11G]_[A12T]]	3.02 nM
UCUCUUCGUGUAUUAUUAAGUCUCUU (ssRNA) [Id_ii_S1_P5E.2_K5.1_C5.2_[T-1G]_H5.1_A5.1_F5.1_T5.2_[T11A]_[A12G]]	14.8 nM
UCUCUUCGUGUAUUAUUAACUCUCUU (ssRNA) [Id_ii_S1_P5E.2_K5.1_C5.2_[T-1G]_H5.1_A5.1_F5.1_T5.2_[T11A]_[A12C]]	12.5 nM
UCUCUUCGUGUAUUAUUAAUUCUCUU (ssRNA) [Id_ii_S1_P5E.2_K5.1_C5.2_[T-1G]_H5.1_A5.1_F5.1_T5.2_[T11A]_[A12T]]	10.1 nM
